Results as given in paper PMC3901395, “Multivalent interactions of the SUMO-interaction motifs in RING finger protein 4 determine the specificity for chains of the SUMO” (Biochemical Journal, 2013).

Test system: (SUMO2)4–GFP–HA2
Experiment: Pulse–chase analysis of (SUMO2)4–GFP–HA2 turnover in yeast
Type: cell-based, S. cerevisiae
Conditions: 2 min pulse labelling with [35S]methionine, anti-HA immunoprecipitation, phosphorimaging
Source text: To correlate the strength of the interaction of RNF4 and its SIM mutants with poly-SUMOs to the activity of RNF4 in living cells, we made use of our previous findings that RNF4 is functional in yeast and disrupts PML-NBs in mammalian cells. We therefore co-expressed combinations of full-length wt RNF4 or its SIM mutants with poly-SUMO chains that retained the native N-terminus on the first SUMO moiety and were C-terminally tagged with GFP–HA in S. cerevisiae. As shown in Figures 3(A)–3(C), the poly-SUMO–GFP–HA reporter constructs were efficiently targeted for degradation. Compared with the control transformants not expressing RNF4, the levels of di-SUMO2 were reduced to approximately 55%, and this effect was enhanced if the chain was composed of three or four SUMOs (45% and 43% of control levels respectively). […]
Concentrated di-SUMO2-/Delta1N11 (10 mg/ml) in crystallization […] buffer was used for crystallization experiments by hanging-drop […] vapour diffusion. Crystals grew in a solution of 0.1 M Tris/HCl, […] pH 8.0, 28 % PEG 350 MME (Qiagen) and 0.05 % dioxane within […] 2–4 days at room temperature (21 ◦ C). […]

B1: RNF4 FL: full-length human RNF4 (RING finger protein 4); FLAG-tagged in yeast, HA-tagged in HeLa cells (protein)
chain: MSTRKRRGGAINSRQAQKRTREATSTPEISLEAEPIELVETAGDEIVDLTCESLEPVVVDLTHNDSVVIVDERRRPRRNARRLPQDHADSCVVSSDDEELSRDRDVYVTTHTPRNARDEGATGLRPSGTVSCPICMDGYSEIVQNGRLIVSTECGHVFCSQCLRDSLKNANTCPTCRKKINHKRYHPIYI
modifications: left off: GST, end not stated, cleaved
notes: full-length human RNF4 (RING finger protein 4); FLAG-tagged in yeast, HA-tagged in HeLa cells
**Q.** For B1, which “turnover of linear tetra-SUMO2 reporter, pulse–chase” value is on record?
**A.** The value was “degraded upon coexpression of RNF4”.
